Results taken from US20250176833A1.

Tests used:
[1] = target: Fc receptors on HL-60 cells; assay: flow cytometry, titration of IRDye680RD-labeled protein on HL-60 cells, non-linear fit of normalized MFI
[2] = target: Fc receptors on Mv4-11 cells; assay: flow cytometry, titration of IRDye680RD-labeled protein on Mv4-11 cells, non-linear fit of normalized MFI
[3] = target: Fc receptors on monocytes of human peripheral blood; assay: flow cytometry on human peripheral blood with immune panel, monocyte gate (CD14 vs Fc-680)
[4] = target: Fc receptors on granulocytes of human peripheral blood; assay: flow cytometry on human peripheral blood with immune panel, granulocyte gate (CD16 vs Fc-680)

Kd [1] [nM] | Kd [2] [nM] | percent of cells bound [3] [%] | percent of cells bound [4] [%] | Substance
5 | 1.7 |  |  | control IgG, labeled with IRDye680RD (antibody)
2.1 | 1.5 |  |  | control scFv-Fc, labeled with IRDye680RD (Fc fusion)
3.6 | 0.4 | 25 | 33 | human IgG1 Fc domain (hinge, CH2 and CH3; expressed with IL2 signal sequence), labeled with IRDye680RD (from UniProt P0DOX5 218-449)
